{"source": "paper PMC3593212", "about": "“Sequence-Specific, RNA–Protein Interactions Overcome Electrostatic Barriers Preventing Assembly of Satellite Tobacco Necrosis Virus Coat Protein” (Journal of Molecular Biology, 2013)", "key": {"[1]": {"biological_target": "T1, STNV-1 coat protein (CP) (Satellite tobacco necrosis virus 1 …, UniProt P03606 1-196)", "T1 sequence": "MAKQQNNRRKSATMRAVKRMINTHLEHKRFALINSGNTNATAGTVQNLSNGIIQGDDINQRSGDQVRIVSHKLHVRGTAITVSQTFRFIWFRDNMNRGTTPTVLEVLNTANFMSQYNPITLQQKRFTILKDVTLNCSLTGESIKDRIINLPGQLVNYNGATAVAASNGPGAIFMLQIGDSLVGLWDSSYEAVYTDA", "assay": "analytical ultracentrifugation (capsid reassembly), TEM; VLPs form even at lowest molar ratio; 28 S and ~42 S species at 1:1; Reassembly buffer, salt, pH and temperature not in the material (capsid assembly depends on calcium and pH); short RNAs at molar ratios incl. 1:1 and 2.5:1; CP", "details": "protein: recombinant; hairpin, 4-nt loop ACAA"}, "[2]": {"biological_target": "T1, STNV-1 coat protein (CP)", "assay": "analytical ultracentrifugation (capsid reassembly); assembly more efficient than B3; Reassembly buffer, salt, pH and temperature not in the material (capsid assembly depends on calcium and pH); short RNAs at molar ratios incl. 1:1 and 2.5:1; CP", "details": "protein: recombinant; hairpin, 4-nt loop ACAA"}, "[3]": {"biological_target": "the molecule itself", "assay": "crystal structure; VLP reassembled from purified CP with B3 RNA aptamer (5:1 w/w CP:RNA) in 50 mM Hepes, 3 mM CaCl2, pH 7.5, purified by SEC; crystals in 50 mM phosphate pH 6.2-6.8, 0.2-0.8% PEG 6000, 0-1 mM MgCl2, 25 °C; strict 60-fold NCS"}, "[4]": {"biological_target": "T1, STNV-1 coat protein (CP)", "assay": "analytical ultracentrifugation (capsid reassembly); heterologous RNA; triggers capsid assembly; Reassembly buffer, salt, pH and temperature not in the material (capsid assembly depends on calcium and pH); short RNAs at molar ratios incl. 1:1 and 2.5:1; CP", "details": "protein: recombinant; hairpin, loop AUUA"}}, "data": [{"binder": "CCUUUUCAAGACAUGCAACAAUGCACACAG (structured_RNA)", "note": "[B3 aptamer]", "values": [{"measurement": "binding result", "setting": "[1]", "result": "binds"}]}, {"binder": "CGUGCAACAAUGCACG (structured_RNA)", "note": "[B3 short]", "values": [{"measurement": "binding result", "setting": "[2]", "result": "binds"}]}, {"binder": "satellite tobacco necrosis virus (STNV-1) coat protein (natural protein, coat protein of satellite tobacco necrosis virus strain 1 (STNV-1), recombinant version expressed from a synthetic gene; In the T = 1 capsid the chain stands 60 times; all assembly here was done with RNA present; also called STNV CP; CP; source: E. coli (synthetic gene); recombinant VLPs purified, disassembled in 50 mM Hepes, 10 mM EDTA, pH 8.5; CP separated from the mRNA by Q-Sepharose FF and SP …) MAKQQNNRRKSATMRAVKRMINTHLEHKRFALINSGNTNATAGTVQNLSNGIIQGDDINQRSGDQVRIVSHKLHVRGTAITVSQTFRFIWFRDNMNRGTTPTVLEVLNTANFMSQYNPITLQQKRFTILKDVTLNCSLTGESIKDRIINLPGQLVNYNGATAVAASNGPGAIFMLQIGDSLVGLWDSSYEAVYTDA", "values": [{"measurement": "stoichiometry N", "setting": "[3]", "result": 60}]}, {"binder": "ACAUGAGGAUUACCCAUGU (structured_RNA)", "note": "[MS2 TR]", "values": [{"measurement": "binding result", "setting": "[4]", "result": "binds"}]}]}
